T1: GABP-alpha (Homo sapiens, UniProt Q06546 Q06546:1-454)
T1 sequence: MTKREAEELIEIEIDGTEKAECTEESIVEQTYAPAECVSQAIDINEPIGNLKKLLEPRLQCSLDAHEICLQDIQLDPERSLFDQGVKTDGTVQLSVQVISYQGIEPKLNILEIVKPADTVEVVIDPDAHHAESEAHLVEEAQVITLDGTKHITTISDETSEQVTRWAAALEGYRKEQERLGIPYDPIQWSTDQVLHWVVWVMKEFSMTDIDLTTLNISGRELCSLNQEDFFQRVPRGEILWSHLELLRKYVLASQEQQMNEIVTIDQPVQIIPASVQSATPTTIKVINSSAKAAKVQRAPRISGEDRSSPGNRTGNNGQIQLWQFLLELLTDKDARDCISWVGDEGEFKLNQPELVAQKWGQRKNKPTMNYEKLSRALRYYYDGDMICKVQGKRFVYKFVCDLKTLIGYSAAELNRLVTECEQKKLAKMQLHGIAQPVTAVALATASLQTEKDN


How the values were obtained:
[1] = tested on: GABP-alpha + GABP-beta1 co-expressed in L6 cells (Homo sapiens); test: cell_activity; details: luciferase reporter in L6 cells, n=24, p<0.001
[2] = target: GABP-alpha/GABP-beta1 heterodimer (Homo sapiens, UniProt Q06546;Q06547 Q06546:1-454,Q06547:2-395); test: EMSA; enhanced relative to GABP-alpha alone, multimeric complexes; 20 mM HEPES pH 7.6, 1 mM MgCl2, 40 mM KCl, on ice; details: tags: GST fusions (pGEX), reconstituted in vitro; label: 32P 5'-end
Experimental: (§1) Nuclear extracts were prepared from dishes of L6 myotubes cultured to confluence and total proteins quantified, as previously described [Ausubel F et al; Current Protocols in Molecular Biology; Wiley, N.Y., 1995]. The double stranded UtroNBox probe used was 5′ATCTTCcggaa C 3′ (SEQ ID NO: 7) (N-box underlined, ets-domain italicised and lower case) which was end-labelled with g-P³² ATP using T4 Polynucleotide kinase. Typically, radiolabelled probe (1 ng c. 10-100,000 cpm) was incubated on ice for 20 minutes with 10 μg nuclear extracts or 1 μl GST fusion proteins in a 12.5 μL reaction buffer containing 20 mM HEPES pH 7.6, 1 mM MgCl₂, 0.1 mM EGTA, 40 mM KCl, 10% Glycerol, 1 μg ssDNA. Competition with cold probe was performed with pre-incubation with 1000× excess of unlabelled UtroNBox probe. Complexes were resolved by electrophoresis at 200 V for 2 Hours on 4% Acrylamide gels in 25 mM Tris, 192 mM Glycine, 1 mM EDTA (for nuclear extracts) and 12.5 mM Tris, 96 mM Glycine, 0.5 mM EDTA (for fusion proteins) prior to autoradiographic analysis using a Storm Phosphorimager (Molecular Dynamics, Sunnyvale, Calif.).
(§2) Electrophoretic mobility shift assay was performed with the radiolabelled oligonucleotide UtroNBox probe and purified GABP-α and GABP-β fusion proteins. […]

GABP-beta1 = GABP-beta1 (Homo sapiens, UniProt Q06547 Q06547:2-395); test: EMSA; GABP-beta alone; 20 mM HEPES pH 7.6, 1 mM MgCl2, 40 mM KCl, on ice; details: tags: GST fusion (pGEX); label: 32P 5'-end
Experimental: as §1, §2

GABP-alpha = target: T1, GABP-alpha; test: EMSA; competed by 1000x unlabelled probe; 20 mM HEPES pH 7.6, 1 mM MgCl2, 40 mM KCl, on ice; details: tags: GST fusion (pGEX); label: 32P 5'-end
Experimental: as §1, §2

Chain of GABP-beta1 (Q06547 2-395, one chain of several): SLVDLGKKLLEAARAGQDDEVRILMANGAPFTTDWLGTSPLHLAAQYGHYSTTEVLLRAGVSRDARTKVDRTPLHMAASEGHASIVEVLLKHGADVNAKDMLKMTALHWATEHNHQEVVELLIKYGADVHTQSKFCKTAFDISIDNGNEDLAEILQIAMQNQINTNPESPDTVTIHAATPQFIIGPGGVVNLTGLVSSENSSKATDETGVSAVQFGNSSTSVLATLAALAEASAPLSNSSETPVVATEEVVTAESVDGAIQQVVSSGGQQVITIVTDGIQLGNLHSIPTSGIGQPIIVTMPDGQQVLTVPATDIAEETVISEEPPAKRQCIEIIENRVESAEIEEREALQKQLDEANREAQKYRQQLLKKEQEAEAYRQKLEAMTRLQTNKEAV
Chain of GABP-alpha/GABP-beta1 heterodimer (Q06547 2-395, one chain of several): as above

Molecule	activity [1]	binding result [2]	binding result (GABP-beta1)	binding result (GABP-alpha)
human utrophin promoter in pPUBF luciferase reporter	238 % of control			
UtroNBox probe (dsDNA) DNA 1: ATCTTCCGGAAC DNA 2: GTTCCGGAAGAT		binds	no binding	binds
